Patent publication US20230051304A1 (Regeneron, published 2023)
Positions count from the first letter of the chain named. Read-outs that look alike come from different tables or passages of the source.

B1: Fc-IL12Rβ1(D1)-p40-p35 x Fc (Fc fusion)
chain 1: ESKYGPPCPPCPAPPVAGPSVFLFPPKPKDTLMISRTPEVTCVVVDVSQEDPEVQFNWYVDGVEVHNAKTKPREEQFNSTYRVVSVLTVLHQDWLNGKEYKCKVSNKGLPSSIEKTISKAKGQPREPQVYTLPPSQEEMTKNQVSLSCAVKGFYPSDIAVEWESNGQPENNYKTTPPVLDSDGSFFLVSRLTVDKSRWQEGNVFSCSVMHEALHNRFTQKSLSLSPGK
chain 2: ESKYGPPCPPCPAPPVAGPSVFLFPPKPKDTLMISRTPEVTCVVVDVSQEDPEVQFNWYVDGVEVHNAKTKPREEQFNSTYRVVSVLTVLHQDWLNGKEYKCKVSNKGLPSSIEKTISKAKGQPREPQVYTLPPSQEEMTKNQVSLWCLVKGFYPSDIAVEWESNGQPENNYKTTPPVLDSDGSFFLYSRLTVDKSRWQEGNVFSCSVMHEALHNHYTQKSLSLSLGKGGGGSGGGGSGGGGSQLGASGPGDGCCVEKTSFPEGASGSPLGPRNLSCYRVSKTDYECSWQYDGPEDNVSHVLWCCFVPPNHTHTGQERCRYFSSGPDRTVQFWEQDGIPVLSKVNFWVESRLGNRTMKSQKISQYLYNWTKTTPPLGGGGSGGGGSGGGGSMWELEKDVYVVEVDWTPDAPGETVNLTCDTPEEDDITWTSDQRHGVIGSGKTLTITVKEFLDAGQYTCHKGGETLSHSHLLLHKKENGIWSTEILKNFKNKTFLKCEAPNYSGRFTCSWLVQRNMDLKFNIKSSSSSPDSRAVTCGMASLSAEKVTLDQRDYEKYSVSCQEDVTCPTAEETLPIELALEARQQNKYENYSTSFFIRDIIKPDPPKNLQMKPLKNSQVEVSWEYPDSWSTPHSYFSLKFFVRIQRKKEKMKETEEGCNQKGAFLVEKTSTEVQCKGGNVCVQAQDRYYNSSCSKWACVPCRVRSGGGGSGGGGSGGGGSRVIPVSGPARCLSQSRNLLKTTDDMVKTAREKLKHYSCTAEDIDHEDITRDQTSTLKTCLPLELHKNESCLATRETSSTTRGSCLPPQKTSLMMTLCLGSIYEDLKMYQTEFQAINAALQNHNHQQIILDKGMLVAIDELMQSLNHNGETLRQKPPVGEADPYRVKMKLCILLHAFSTRVVTINRVMGYLSSA
notes: Receptor-masked monovalent murine IL12; also called Fc x Fc-mIL12Rb1(D1)-mIL12p40-p35
B2: Bivalent: Fc-IL12(p40-p35) (Fc fusion)
chain: ESKYGPPCPPCPAPPVAGPSVFLFPPKPKDTLMISRTPEVTCVVVDVSQEDPEVQFNWYVDGVEVHNAKTKPREEQFNSTYRVVSVLTVLHQDWLNGKEYKCKVSNKGLPSSIEKTISKAKGQPREPQVYTLPPSQEEMTKNQVSLTCLVKGFYPSDIAVEWESNGQPENNYKTTPPVLDSDGSFFLYSRLTVDKSRWQEGNVFSCSVMHEALHNHYTQKSLSLSLGKGGGGSGGGGSGGGGSMWELEKDVYVVEVDWTPDAPGETVNLTCDTPEEDDITWTSDQRHGVIGSGKTLTITVKEFLDAGQYTCHKGGETLSHSHLLLHKKENGIWSTEILKNFKNKTFLKCEAPNYSGRFTCSWLVQRNMDLKFNIKSSSSSPDSRAVTCGMASLSAEKVTLDQRDYEKYSVSCQEDVTCPTAEETLPIELALEARQQNKYENYSTSFFIRDIIKPDPPKNLQMKPLKNSQVEVSWEYPDSWSTPHSYFSLKFFVRIQRKKEKMKETEEGCNQKGAFLVEKTSTEVQCKGGNVCVQAQDRYYNSSCSKWACVPCRVRSGGGGSGGGGSGGGGSRVIPVSGPARCLSQSRNLLKTTDDMVKTAREKLKHYSCTAEDIDHEDITRDQTSTLKTCLPLELHKNESCLATRETSSTTRGSCLPPQKTSLMMTLCLGSIYEDLKMYQTEFQAINAALQNHNHQQIILDKGMLVAIDELMQSLNHNGETLRQKPPVGEADPYRVKMKLCILLHAFSTRVVTINRVMGYLSSA
B3: Fc-IL12(mutein 17) (Fc fusion)
chain: B2 chain with E336A, K438A
B4: Fc-p40-p35 x Fc (Fc fusion)
chain 1: B1 chain 1
chain 2: B2 chain with T147W
notes: hIgG4s(HoleStar) x hIgG4s(Knob)-p40-p35, murine IL12; also called Fc-p40-p35×Fc control; unmasked monovalent control
B5: Fc-IL12(mutein 14) (Fc fusion)
chain: B2 chain with E302A, F303A
B6: Fc-p40-p35 x Fc-IL12Rβ2(D1) (Fc fusion)
chain 1: ESKYGPPCPPCPAPPVAGPSVFLFPPKPKDTLMISRTPEVTCVVVDVSQEDPEVQFNWYVDGVEVHNAKTKPREEQFNSTYRVVSVLTVLHQDWLNGKEYKCKVSNKGLPSSIEKTISKAKGQPREPQVYTLPPSQEEMTKNQVSLSCAVKGFYPSDIAVEWESNGQPENNYKTTPPVLDSDGSFFLVSRLTVDKSRWQEGNVFSCSVMHEALHNRFTQKSLSLSPGKGGGGSGGGGSGGGGSNIDVCKLGTVTVQPAPVIPLGSAANISCSLNPKQGCSHYPSSNELILLKFVNDVLVENLHGKKVHDHTGHSSTFQVTNLSLGMTLFVCKLNCSNSQKKPPVPVCGVEISVGV
chain 2: B2 chain with T147W
notes: Receptor-masked monovalent murine IL12; also called hIgG4s(HoleStar)-mIL12Rb2(D1) x hIgG4s(Knob)-mIL12p40-p35
B7: Fc-p40-p35 x Fc-IL12Rβ1(D1) (Fc fusion)
chain 1: ESKYGPPCPPCPAPPVAGPSVFLFPPKPKDTLMISRTPEVTCVVVDVSQEDPEVQFNWYVDGVEVHNAKTKPREEQFNSTYRVVSVLTVLHQDWLNGKEYKCKVSNKGLPSSIEKTISKAKGQPREPQVYTLPPSQEEMTKNQVSLSCAVKGFYPSDIAVEWESNGQPENNYKTTPPVLDSDGSFFLVSRLTVDKSRWQEGNVFSCSVMHEALHNRFTQKSLSLSPGKGGGGSGGGGSGGGGSQLGASGPGDGCCVEKTSFPEGASGSPLGPRNLSCYRVSKTDYECSWQYDGPEDNVSHVLWCCFVPPNHTHTGQERCRYFSSGPDRTVQFWEQDGIPVLSKVNFWVESRLGNRTMKSQKISQYLYNWTKTTPPL
chain 2: B2 chain with T147W
notes: Receptor-masked monovalent murine IL12; also called hIgG4s(HoleStar)-mIL12Rb1(D1) x hIgG4s(Knob)-mIL12p40-p35
B8: Fc-IL12(mutein 16) (Fc fusion)
chain: B2 chain with W258A, F303A
B9: Fc-IL12(mutein 15) (Fc fusion)
chain: B2 chain with E302A, F303A, K327A

Tests used:
[1] = biological target: T1, murine IL12 receptor complex (IL12Rβ1 and IL12Rβ2) (mouse, UniProt Q60837 20-738; P97378 24-874); test: flow cytometry on activated primary mouse T cells (CD25+ CD8+ CD90.2+), anti-human Fc detection, MFI
T1 construct: whole, on cells; also called IL12 receptors beta 1 (IL12Rβ1) and beta 2 (IL12Rβ2); IL12Rb1 and IL12Rb2
Experimental: Spleens were harvested from C57BL/6 mice and dissociated manually. Splenocytes were stimulated by culturing for 48 hours in RPMI+10% FBS+2 mM L-glutamine/Pen/Strep in the presence of anti-CD3 and anti-CD28 activation beads (Thermo/11456D) at a 1:3 (beads:splenocytes) ratio and in the presence of 30 U/mL human IL-2 (proleukin). […] Cells were washed once before plating 200,000 cells per well in a 96-well plate and staining indicated concentration of test IL12-Fc fusion proteins or variant molecules for 2 hours on ice. Cells were washed twice before staining for the Fc portion using an ahuFC antibody (Jackson Immuno 109-136-170). Data was acquired using a BD LSRFortessa™ X-20 instrument. Data plots represent geometric mean fluorescence intensity (MFI) of the ahuFC signal from CD25+, CD8+CD90.2+ T cells.

[2] = biological target: T1, murine IL12 receptor complex (IL12Rβ1 …); test: cell-based or functional assay
[3] = biological target: T1, murine IL12 receptor complex (IL12Rβ1 …); test: cell-based or functional assay; remark: listed apart in the source
[4] = biological target: T1, murine IL12 receptor complex (IL12Rβ1 …); test: cell-based or functional assay; remark: listed apart in the source

T1 sequence (Q60837 20-738, chain 1 of 2): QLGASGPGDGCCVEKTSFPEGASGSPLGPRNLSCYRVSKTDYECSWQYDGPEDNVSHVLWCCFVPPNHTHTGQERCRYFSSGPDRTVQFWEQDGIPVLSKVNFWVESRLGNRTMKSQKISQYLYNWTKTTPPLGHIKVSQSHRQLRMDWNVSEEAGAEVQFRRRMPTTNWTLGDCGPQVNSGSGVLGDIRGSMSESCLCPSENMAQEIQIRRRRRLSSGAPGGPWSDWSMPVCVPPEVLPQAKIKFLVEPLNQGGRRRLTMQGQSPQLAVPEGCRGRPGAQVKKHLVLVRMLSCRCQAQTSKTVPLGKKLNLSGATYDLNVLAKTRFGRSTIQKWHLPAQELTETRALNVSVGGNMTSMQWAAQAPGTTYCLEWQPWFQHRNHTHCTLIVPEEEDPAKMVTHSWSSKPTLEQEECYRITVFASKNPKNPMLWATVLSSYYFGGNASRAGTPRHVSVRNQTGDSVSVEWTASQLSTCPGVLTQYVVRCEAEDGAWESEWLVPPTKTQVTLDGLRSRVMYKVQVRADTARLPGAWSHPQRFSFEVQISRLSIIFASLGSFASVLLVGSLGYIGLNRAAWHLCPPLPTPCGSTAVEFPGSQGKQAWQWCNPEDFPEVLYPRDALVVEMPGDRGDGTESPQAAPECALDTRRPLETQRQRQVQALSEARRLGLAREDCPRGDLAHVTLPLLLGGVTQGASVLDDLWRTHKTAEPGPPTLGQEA
T1 sequence (P97378 24-874, chain 2 of 2): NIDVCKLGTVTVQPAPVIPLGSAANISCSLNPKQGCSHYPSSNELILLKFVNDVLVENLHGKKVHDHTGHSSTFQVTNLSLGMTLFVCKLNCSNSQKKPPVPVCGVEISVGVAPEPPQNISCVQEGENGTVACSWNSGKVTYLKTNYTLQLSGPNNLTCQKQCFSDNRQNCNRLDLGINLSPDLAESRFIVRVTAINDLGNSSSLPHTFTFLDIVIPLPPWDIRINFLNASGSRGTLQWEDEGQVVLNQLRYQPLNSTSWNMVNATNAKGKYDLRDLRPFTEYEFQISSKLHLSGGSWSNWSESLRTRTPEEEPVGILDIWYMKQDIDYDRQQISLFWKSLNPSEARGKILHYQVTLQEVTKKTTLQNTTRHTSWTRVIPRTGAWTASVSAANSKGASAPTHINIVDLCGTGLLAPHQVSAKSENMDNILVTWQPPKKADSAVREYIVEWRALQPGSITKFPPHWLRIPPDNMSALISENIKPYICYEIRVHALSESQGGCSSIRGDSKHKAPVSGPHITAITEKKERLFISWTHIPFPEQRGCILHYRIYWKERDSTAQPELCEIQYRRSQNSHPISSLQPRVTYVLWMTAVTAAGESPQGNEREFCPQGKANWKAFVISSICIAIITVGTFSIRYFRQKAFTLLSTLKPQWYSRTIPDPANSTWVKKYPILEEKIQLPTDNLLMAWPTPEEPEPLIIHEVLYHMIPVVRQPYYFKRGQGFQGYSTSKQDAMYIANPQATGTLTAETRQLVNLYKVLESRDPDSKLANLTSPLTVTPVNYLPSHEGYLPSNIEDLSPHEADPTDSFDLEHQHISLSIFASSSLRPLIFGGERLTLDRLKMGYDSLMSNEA

| Binder | binding result [1] | EC50 (M); STAT3-Luc reporter, CTLL2/STAT3-Luc cells [4] | Max fold induction; STAT3-Luc reporter, CTLL2/STAT3-Luc cells [4] | further results |
| --- | --- | --- | --- | --- |
| B1 | binds | – | – | – |
| B2 | – | 9.95e-11 M | 12.2 fold | EC50 (M); STAT3-Luc reporter, CTLL2/STAT3-Luc cells [2]: 1.85e-11 M; Fold induction at 6.25 nM; STAT3-Luc reporter, CTLL2/STAT3-Luc cells [2]: 6.73 fold; Max fold induction; STAT3-Luc reporter, CTLL2/STAT3-Luc cells [2]: 7.66 fold; EC50 (M); STAT3-Luc reporter, CTLL2/STAT3-Luc cells [3]: 6.11e-11 M; Fold induction at 20 nM; STAT3-Luc reporter, CTLL2/STAT3-Luc cells [3]: 12.8 fold; Max fold induction; STAT3-Luc reporter, CTLL2/STAT3-Luc cells [3]: 14.4 fold |
| B3 | – | 3.53e-10 M | 9.67 fold | – |
| B4 | binds | – | – | – |
| B5 | – | 3.79e-09 M | 7.31 fold | – |
| B6 | binds | – | – | – |
| B7 | binds | – | – | – |
| B8 | – | 1.67e-08 M | 2.48 fold | – |
| B9 | – | – | 1.18 fold | – |
